Here are results for two molecules from article doi:10.1101/2025.07.08.663435 (bioRxiv, 2025).

The data set “atomic force microscopy” deals with the molecule itself. Put plainly: atomic force microscopy.
The target in another data set is T1, SMCHD1 ATPase domain (UniProt A6NHR9 25-581).
T1 sequence: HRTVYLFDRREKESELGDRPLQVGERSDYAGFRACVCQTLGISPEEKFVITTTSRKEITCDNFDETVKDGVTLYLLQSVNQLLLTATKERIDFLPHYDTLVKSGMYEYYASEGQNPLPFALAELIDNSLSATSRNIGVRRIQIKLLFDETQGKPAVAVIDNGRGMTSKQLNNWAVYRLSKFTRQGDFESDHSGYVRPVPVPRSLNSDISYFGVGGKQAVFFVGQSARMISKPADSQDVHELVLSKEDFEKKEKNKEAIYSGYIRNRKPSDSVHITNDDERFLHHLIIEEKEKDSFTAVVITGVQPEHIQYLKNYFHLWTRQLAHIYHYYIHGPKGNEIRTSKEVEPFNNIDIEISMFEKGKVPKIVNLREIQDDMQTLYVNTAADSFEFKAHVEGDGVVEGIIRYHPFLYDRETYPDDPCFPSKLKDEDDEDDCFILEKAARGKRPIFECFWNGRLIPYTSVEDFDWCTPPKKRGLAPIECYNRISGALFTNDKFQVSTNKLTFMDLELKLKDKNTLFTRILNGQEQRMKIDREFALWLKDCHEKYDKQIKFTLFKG
Put plainly: EMSA. Background: In EMSA bound probe runs differently from free probe, usually more slowly.

B1: SMCHD1^△CC, truncated SMCHD1 without both coiled-coil domains, purified (natural protein, human, UniProt A6NHR9 1-2005, looked up)
chain: MAAADGGGPGGASVGTEEDGGGVGHRTVYLFDRREKESELGDRPLQVGERSDYAGFRACVCQTLGISPEEKFVITTTSRKEITCDNFDETVKDGVTLYLLQSVNQLLLTATKERIDFLPHYDTLVKSGMYEYYASEGQNPLPFALAELIDNSLSATSRNIGVRRIQIKLLFDETQGKPAVAVIDNGRGMTSKQLNNWAVYRLSKFTRQGDFESDHSGYVRPVPVPRSLNSDISYFGVGGKQAVFFVGQSARMISKPADSQDVHELVLSKEDFEKKEKNKEAIYSGYIRNRKPSDSVHITNDDERFLHHLIIEEKEKDSFTAVVITGVQPEHIQYLKNYFHLWTRQLAHIYHYYIHGPKGNEIRTSKEVEPFNNIDIEISMFEKGKVPKIVNLREIQDDMQTLYVNTAADSFEFKAHVEGDGVVEGIIRYHPFLYDRETYPDDPCFPSKLKDEDDEDDCFILEKAARGKRPIFECFWNGRLIPYTSVEDFDWCTPPKKRGLAPIECYNRISGALFTNDKFQVSTNKLTFMDLELKLKDKNTLFTRILNGQEQRMKIDREFALWLKDCHEKYDKQIKFTLFKGVITRPDLPSKKQGPWATYAAIEWDGKIYKAGQLVKTIKTLPLFYGSIVRFFLYGDHDGEVYATGGEVQIAMEPQALYDEVRTVPIAKLDRTVAEKAVKKYVEDEMARLPDRLSVTWPEGDELLPNEVRPAGTPIGALRIEILNKKGEAMQKLPGTSHGGSKKLLVELKVILHSSSGNKEIISHISQHGGKWPYWFKKMENIQKLGNYTLKLQVVLNESNADTYAGRPLPSKAIKFSVKEGKPEKFSFGLLDLPFRVGVPFNIPLEFQDEFGHTSQLVTDIQPVLEASGLSLHYEEITKGPNCVIRGVTAKGPVNSCQGKNYNLKVTLPGLKEDSQILKIRLLPGHPRRLKVKPDSEILVIENGTAFPFQVEVLDESDNITAQPKLIVHCKFSGAPNLPVYVVDCSSSGTSILTGSAIQVQNIKKDQTLKARIEIPSCKDVAPVEKTIKLLPSSHVARLQIFSVEGQKAIQIKHQDEVNWIAGDIMHNLIFQMYDEGEREINITSALAEKIKVNWTPEINKEHLLQGLLPDVQVPTSVKDMRYCQVSFQDDHVSLESAFTVRPLPDEPKHLKCEMKGGKTVQMGQELQGEVVIIITDQYGNQIQAFSPSSLSSLSIAGVGLDSSNLKTTFQENTQSISVRGIKFIPGPPGNKDLCFTWREFSDFIRVQLISGPPAKLLLIDWPELKESIPVINGRDLQNPIIVQLCDQWDNPAPVQHVKISLTKASNLKLMPSNQQHKTDEKGRANLGVFSVFAPRGEHTLQVKAIYNKSIIEGPIIKLMILPDPEKPVRLNVKYDKDASFLAGGLFTDFMISVISEDDSIIKNINPARISMKMWKLSTSGNRPPANAETFSCNKIKDNDKEDGCFYFRDKVIPNKVGTYCIQFGFMMDKTNILNSEQVIVEVLPNQPVKLVPKIKPPTPAVSNVRSVASRTLVRDLHLSITDDYDNHTGIDLVGTIIATIKGSNEEDTDTPLFIGKVRTLEFPFVNGSAEIMSLVLAESSPGRDSTEYFIVFEPRLPLLSRTLEPYILPFMFYNDVQQVPHIEALLKRKLSEQEELKKKPRRSCTLPNYTKGSGDVLGKIAHLAQIEDDRAAMVISWHLASDMDCVVTLTTDAARRIYDETQGRQQVLPLDSIYKKTLPDWKRSLPHFRNGKLYFKPIGDPVFARDLLTFPDNVEHCETVFGMLLGDTIILDNLDAANHYRKEVVKITHCPTLLTRDGDRIRSNGKFGGLQNKAPPMDKLRGMVFGAPVPKQCEEKLGMTPIRKCNDSLRHSPKVETTDCPVPPKRMRREATRQNRIITKTDV
On to B1, for which the binding result in “atomic force microscopy” is listed as “binds”.

B2: FAM 37 bp duplex (dsDNA)
DNA 1: CCTAGGCTACACCTACTCTTTGTAAGAATTAAGCTTC
DNA 2: GAAGCTTAATTCTTACAAAGAGTAGGTGTAGCCTAGG
As for B2, the binding result with SMCHD1 ATPase domain is “binds”.
